For 8 molecules, ratio to parent results are on record in paper PMC6056499, “A systematic dissection of sequence elements determining β-Klotho and FGF interaction and signaling” (Scientific Reports, 2018).

The chains are these.
B1: mature human FGF21 polypeptide fused with the human Fc fragment at the N-terminus (Fc-FGF21), wild type, Q9NSA1 191S-A (protein)
chain: HPIPDSSPLLQFGGQVRQRYLYTDDAQQTEAHLEIREDGTVGGAADQSPESLLQLKALKPGVIQILGVKTSRFLCQRPDGALYGSLHFDPEACSFRELLLEDGYNVYQSEAHGLPLHLPGNKSPHRDPAPRGPARFLPLPGLPPALPEPPGILAPQPPDVGSADPLSMVGPSQGRSPSYAS
B2: mature human FGF21 polypeptide fused with the human Fc fragment at the N-terminus (Fc-FGF21), wild type, Q9NSA1 191S-R (protein)
chain: HPIPDSSPLLQFGGQVRQRYLYTDDAQQTEAHLEIREDGTVGGAADQSPESLLQLKALKPGVIQILGVKTSRFLCQRPDGALYGSLHFDPEACSFRELLLEDGYNVYQSEAHGLPLHLPGNKSPHRDPAPRGPARFLPLPGLPPALPEPPGILAPQPPDVGSRDPLSMVGPSQGRSPSYAS
B3: mature human FGF21 polypeptide fused with the human Fc fragment at the N-terminus (Fc-FGF21), wild type, Q9NSA1 206S-A (protein)
chain: HPIPDSSPLLQFGGQVRQRYLYTDDAQQTEAHLEIREDGTVGGAADQSPESLLQLKALKPGVIQILGVKTSRFLCQRPDGALYGSLHFDPEACSFRELLLEDGYNVYQSEAHGLPLHLPGNKSPHRDPAPRGPARFLPLPGLPPALPEPPGILAPQPPDVGSSDPLSMVGPSQGRSPAYAS
B4: mature human FGF21 polypeptide fused with the human Fc fragment at the N-terminus (Fc-FGF21), wild type, Q9NSA1 204S-A (protein)
chain: HPIPDSSPLLQFGGQVRQRYLYTDDAQQTEAHLEIREDGTVGGAADQSPESLLQLKALKPGVIQILGVKTSRFLCQRPDGALYGSLHFDPEACSFRELLLEDGYNVYQSEAHGLPLHLPGNKSPHRDPAPRGPARFLPLPGLPPALPEPPGILAPQPPDVGSSDPLSMVGPSQGRAPSYAS
B5: mature human FGF21 polypeptide fused with the human Fc fragment at the N-terminus (Fc-FGF21), wild type, Q9NSA1 207Y-R (protein)
chain: HPIPDSSPLLQFGGQVRQRYLYTDDAQQTEAHLEIREDGTVGGAADQSPESLLQLKALKPGVIQILGVKTSRFLCQRPDGALYGSLHFDPEACSFRELLLEDGYNVYQSEAHGLPLHLPGNKSPHRDPAPRGPARFLPLPGLPPALPEPPGILAPQPPDVGSSDPLSMVGPSQGRSPSRAS
B6: mature human FGF21 polypeptide fused with the human Fc fragment at the N-terminus (Fc-FGF21), wild type, Q9NSA1 207Y-A (protein)
chain: HPIPDSSPLLQFGGQVRQRYLYTDDAQQTEAHLEIREDGTVGGAADQSPESLLQLKALKPGVIQILGVKTSRFLCQRPDGALYGSLHFDPEACSFRELLLEDGYNVYQSEAHGLPLHLPGNKSPHRDPAPRGPARFLPLPGLPPALPEPPGILAPQPPDVGSSDPLSMVGPSQGRSPSAAS
B7: mature human FGF21 polypeptide fused with the human Fc fragment at the N-terminus (Fc-FGF21), wild type, Q9NSA1 206S-R (protein)
chain: HPIPDSSPLLQFGGQVRQRYLYTDDAQQTEAHLEIREDGTVGGAADQSPESLLQLKALKPGVIQILGVKTSRFLCQRPDGALYGSLHFDPEACSFRELLLEDGYNVYQSEAHGLPLHLPGNKSPHRDPAPRGPARFLPLPGLPPALPEPPGILAPQPPDVGSSDPLSMVGPSQGRSPRYAS
B8: mature human FGF21 polypeptide fused with the human Fc fragment at the N-terminus (Fc-FGF21), wild type, Q9NSA1 204S-R (protein)
chain: HPIPDSSPLLQFGGQVRQRYLYTDDAQQTEAHLEIREDGTVGGAADQSPESLLQLKALKPGVIQILGVKTSRFLCQRPDGALYGSLHFDPEACSFRELLLEDGYNVYQSEAHGLPLHLPGNKSPHRDPAPRGPARFLPLPGLPPALPEPPGILAPQPPDVGSSDPLSMVGPSQGRRPSYAS

The target in this assay is human β-Klotho extracellular domain (aa1–992) fused with a 6 × His tag at the C-terminus, Q86Z14. Kind of assay: solid-phase binding assay. The conditions noted are these: chain shown with the change;; parent: est. 1.0; read off a plot.
Chain of human β-Klotho extracellular domain (aa1–992) fused with a 6 × His tag at the C-terminus, Q86Z14 (Q86Z14 53-992): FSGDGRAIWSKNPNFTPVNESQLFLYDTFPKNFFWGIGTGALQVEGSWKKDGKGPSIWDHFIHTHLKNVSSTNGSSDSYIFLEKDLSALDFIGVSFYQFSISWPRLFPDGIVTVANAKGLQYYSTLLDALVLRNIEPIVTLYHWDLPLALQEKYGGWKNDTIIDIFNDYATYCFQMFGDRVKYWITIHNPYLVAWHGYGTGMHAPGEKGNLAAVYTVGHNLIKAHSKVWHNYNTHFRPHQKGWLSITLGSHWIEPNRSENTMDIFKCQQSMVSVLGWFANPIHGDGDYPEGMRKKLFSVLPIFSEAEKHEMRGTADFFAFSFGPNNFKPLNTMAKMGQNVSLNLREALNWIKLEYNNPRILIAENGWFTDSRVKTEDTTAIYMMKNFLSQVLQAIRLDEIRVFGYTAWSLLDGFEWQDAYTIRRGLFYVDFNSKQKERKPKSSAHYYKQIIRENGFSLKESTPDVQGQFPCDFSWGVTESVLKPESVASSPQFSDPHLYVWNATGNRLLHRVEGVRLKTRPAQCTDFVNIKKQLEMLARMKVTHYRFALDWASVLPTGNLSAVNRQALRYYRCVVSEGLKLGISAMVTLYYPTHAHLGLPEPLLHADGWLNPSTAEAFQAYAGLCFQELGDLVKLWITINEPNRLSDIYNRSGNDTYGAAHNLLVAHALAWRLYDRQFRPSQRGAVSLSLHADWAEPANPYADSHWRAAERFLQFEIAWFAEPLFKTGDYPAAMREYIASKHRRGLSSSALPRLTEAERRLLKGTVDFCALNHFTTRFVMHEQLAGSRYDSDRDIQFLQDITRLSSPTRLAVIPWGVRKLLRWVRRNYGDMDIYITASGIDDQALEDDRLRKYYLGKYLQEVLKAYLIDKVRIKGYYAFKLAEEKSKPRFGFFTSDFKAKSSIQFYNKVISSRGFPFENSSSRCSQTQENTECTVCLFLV
Consider B1, for which the ratio to parent worked out at 0.6. Consider B2, for which the ratio to parent worked out at 350. As to B3, the ratio to parent stood at 120. In the case of B4, the ratio to parent stood at 120.

As to B5, the ratio to parent is 530. The result for B6 reads 180; that for B7, 170. Consider B8, for which the ratio to parent is 250.
